Laboratory results from paper PMC7598476.

Assays:
[1] = molecular target: biotinylated monomeric hMPV B2 F protein (human metapneumovirus (subgroup B2)); assay: BLI
[2] = molecular target: trypsinized trimeric hMPV B2 F (human metapneumovirus (subgroup B2)); assay: SEC

Row | Kd [1] | Substance | stoichiometry N [2]
1 | 0.43 µM | 101F Fab | –
2 | – | trypsinized trimeric hMPV B2 F (natural protein) | 3
